# Measurements from PMC9352680, “A comprehensive thermodynamic model for RNA binding by the Saccharomyces cerevisiae Pumilio protein PUF4”.
# T1: PUF4 RNA-binding domain (Saccharomyces cerevisiae, UniProt P25339 537-888)
# T1 sequence: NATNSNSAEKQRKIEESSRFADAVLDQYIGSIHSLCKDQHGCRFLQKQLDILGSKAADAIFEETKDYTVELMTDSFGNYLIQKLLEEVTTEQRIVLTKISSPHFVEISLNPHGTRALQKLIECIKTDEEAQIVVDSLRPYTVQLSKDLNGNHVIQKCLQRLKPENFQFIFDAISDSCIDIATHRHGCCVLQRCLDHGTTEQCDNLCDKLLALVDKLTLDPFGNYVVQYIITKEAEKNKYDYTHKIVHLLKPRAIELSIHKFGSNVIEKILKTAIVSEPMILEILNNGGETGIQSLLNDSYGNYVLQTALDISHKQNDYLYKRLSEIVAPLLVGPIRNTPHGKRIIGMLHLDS
# Biological target: T1, PUF4 RNA-binding domain
# Test: Mg; RNA-MaP; 20 mM Na-HEPES pH 7.4, 30 mM KOAc, 0.75 mM MgCl2, 0.1% Tween-20, 5% glycerol, 0.1 mg/mL BSA, 2 mM DTT; 25 C; 0.0125-409.6 nM protein
# Conditions: tags: N-His6-TEV cleaved; C-SNAP kept, Cy3B-labelled; label: tethered on chip by stalled RNA polymerase
binder,measurement,value
UCUCUUAUUAUAUUAUUAGCUCUCUU (ssRNA) [Id_ii_S1_P5E.3_K5.2_C5.2_[C-2A]_H5.2_A5.1_F5.1_T5.2_[T11G]_[A12C]],Kd,208 nM
UCUCUUCAUAUAUUAUUAGGUCUCUU (ssRNA) [Id_ii_S1_P5E.3_K5.2_C5.2_[T-1A]_H5.2_A5.1_F5.1_T5.2_[T11G]_[A12G]],Kd,488 nM
UCUCUUCCUAUAUUAUUAACUCUCUU (ssRNA) [Id_ii_S1_P5E.3_K5.2_C5.2_[T-1C]_H5.2_A5.1_F5.1_T5.2_[T11A]_[A12C]],Kd,620 nM
UCUCUUCCUAUAUUAUUACUUCUCUU (ssRNA) [Id_ii_S1_P5E.3_K5.2_C5.2_[T-1C]_H5.2_A5.1_F5.1_T5.2_[T11C]_[A12T]],Kd,456 nM
UCUCUUUUUAUAUUAUUAAUUCUCUU (ssRNA) [Id_ii_S1_P5E.3_K5.2_C5.2_[C-2T]_H5.2_A5.1_F5.1_T5.2_[T11A]_[A12T]],Kd,457 nM
UCUCUUCAUAUAUUAUUACGUCUCUU (ssRNA) [Id_ii_S1_P5E.3_K5.2_C5.2_[T-1A]_H5.2_A5.1_F5.1_T5.2_[T11C]_[A12G]],Kd,440 nM
UCUCUUCUUAUAUUAUUAGUUCUCUU (ssRNA) [Id_ii_S1_P5E.3_K5.2_C5.2_H5.2_A5.1_F5.1_T5.2_[T11G]_[A12T]],Kd,82.2 nM
UCUCUUAUUAUAUUAUUAACUCUCUU (ssRNA) [Id_ii_S1_P5E.3_K5.2_C5.2_[C-2A]_H5.2_A5.1_F5.1_T5.2_[T11A]_[A12C]],Kd,159 nM
UCUCUUCCUAUAUUAUUAUCUCUCUU (ssRNA) [Id_ii_S1_P5E.3_K5.2_C5.2_[T-1C]_H5.2_A5.1_F5.1_T5.2_[A12C]],Kd,532 nM
UCUCUUUUUAUAUUAUUACAUCUCUU (ssRNA) [Id_ii_S1_P5E.3_K5.2_C5.2_[C-2T]_H5.2_A5.1_F5.1_T5.2_[T11C]],Kd,497 nM
UCUCUUUUUAUAUUAUUAUUUCUCUU (ssRNA) [Id_ii_S1_P5E.3_K5.2_C5.2_[C-2T]_H5.2_A5.1_F5.1_T5.2_[A12T]],Kd,181 nM
UCUCUUCAUAUAUUAUUAGCUCUCUU (ssRNA) [Id_ii_S1_P5E.3_K5.2_C5.2_[T-1A]_H5.2_A5.1_F5.1_T5.2_[T11G]_[A12C]],Kd,157 nM
UCUCUUCCUAUAUUAUUAUUUCUCUU (ssRNA) [Id_ii_S1_P5E.3_K5.2_C5.2_[T-1C]_H5.2_A5.1_F5.1_T5.2_[A12T]],Kd,517 nM
UCUCUUCGUAUAUUAUUAGUUCUCUU (ssRNA) [Id_ii_S1_P5E.3_K5.2_C5.2_[T-1G]_H5.2_A5.1_F5.1_T5.2_[T11G]_[A12T]],Kd,25.4 nM
UCUCUUACUAUAUUAUUAAUUCUCUU (ssRNA) [Id_ii_S1_P5E.3_K5.2_C5.2_[C-2A]_[T-1C]_H5.2_A5.1_F5.1_T5.2_[T11A]_[A12T]],Kd,453 nM
UCUCUUAUUAUAUUAUUAUUUCUCUU (ssRNA) [Id_ii_S1_P5E.3_K5.2_C5.2_[C-2A]_H5.2_A5.1_F5.1_T5.2_[A12T]],Kd,160 nM
UCUCUUCUUAUAUUAUUACUUCUCUU (ssRNA) [Id_ii_S1_P5E.3_K5.2_C5.2_H5.2_A5.1_F5.1_T5.2_[T11C]_[A12T]],Kd,439 nM
UCUCUUCGUAUAUUAUUAGCUCUCUU (ssRNA) [Id_ii_S1_P5E.3_K5.2_C5.2_[T-1G]_H5.2_A5.1_F5.1_T5.2_[T11G]_[A12C]],Kd,25.6 nM
UCUCUUAUUAUAUUAUUACUUCUCUU (ssRNA) [Id_ii_S1_P5E.3_K5.2_C5.2_[C-2A]_H5.2_A5.1_F5.1_T5.2_[T11C]_[A12T]],Kd,175 nM
UCUCUUACUAUAUUAUUAUCUCUCUU (ssRNA) [Id_ii_S1_P5E.3_K5.2_C5.2_[C-2A]_[T-1C]_H5.2_A5.1_F5.1_T5.2_[A12C]],Kd,536 nM
UCUCUUCAUAUAUUAUUAUCUCUCUU (ssRNA) [Id_ii_S1_P5E.3_K5.2_C5.2_[T-1A]_H5.2_A5.1_F5.1_T5.2_[A12C]],Kd,180 nM
UCUCUUUGUAUUAGUCUCUCUU (ssRNA) [Ib_S1_P5E.1_K5.1_C5.1_H5.1_A5.1_F5.1_[T8G]_[A10C]_T5.1],Kd,518 nM
UCUCUUAUUAUAUUAUUACAUCUCUU (ssRNA) [Id_ii_S1_P5E.3_K5.2_C5.2_[C-2A]_H5.2_A5.1_F5.1_T5.2_[T11C]],Kd,128 nM
UCUCUUCAUAUAUUAUUAAUUCUCUU (ssRNA) [Id_ii_S1_P5E.3_K5.2_C5.2_[T-1A]_H5.2_A5.1_F5.1_T5.2_[T11A]_[A12T]],Kd,424 nM
UCUCUUCAUAUAUUAUUACUUCUCUU (ssRNA) [Id_ii_S1_P5E.3_K5.2_C5.2_[T-1A]_H5.2_A5.1_F5.1_T5.2_[T11C]_[A12T]],Kd,321 nM
UCUCUUCGUAUAUUAUUAUCUCUCUU (ssRNA) [Id_ii_S1_P5E.3_K5.2_C5.2_[T-1G]_H5.2_A5.1_F5.1_T5.2_[A12C]],Kd,18.4 nM
UCUCUUCGUAUAUUAUUAAAUCUCUU (ssRNA) [Id_ii_S1_P5E.3_K5.2_C5.2_[T-1G]_H5.2_A5.1_F5.1_T5.2_[T11A]],Kd,38.8 nM
UCUCUUCCUAUAUUAUUACAUCUCUU (ssRNA) [Id_ii_S1_P5E.3_K5.2_C5.2_[T-1C]_H5.2_A5.1_F5.1_T5.2_[T11C]],Kd,592 nM
UCUCUUCGUAUAUUAUUAAUUCUCUU (ssRNA) [Id_ii_S1_P5E.3_K5.2_C5.2_[T-1G]_H5.2_A5.1_F5.1_T5.2_[T11A]_[A12T]],Kd,26.5 nM
UCUCUUUGUAUUAGUGUCUCUU (ssRNA) [Ib_S1_P5E.1_K5.1_C5.1_H5.1_A5.1_F5.1_[T8G]_[A10G]_T5.1],Kd,386 nM
UCUCUUACUAUAUUAUUAACUCUCUU (ssRNA) [Id_ii_S1_P5E.3_K5.2_C5.2_[C-2A]_[T-1C]_H5.2_A5.1_F5.1_T5.2_[T11A]_[A12C]],Kd,706 nM
UCUCUUCAUAUAUUAUUAUUUCUCUU (ssRNA) [Id_ii_S1_P5E.3_K5.2_C5.2_[T-1A]_H5.2_A5.1_F5.1_T5.2_[A12T]],Kd,395 nM
UCUCUUCAUAUAUUAUUAACUCUCUU (ssRNA) [Id_ii_S1_P5E.3_K5.2_C5.2_[T-1A]_H5.2_A5.1_F5.1_T5.2_[T11A]_[A12C]],Kd,218 nM
UCUCUUACUAUAUUAUUACCUCUCUU (ssRNA) [Id_ii_S1_P5E.3_K5.2_C5.2_[C-2A]_[T-1C]_H5.2_A5.1_F5.1_T5.2_[T11C]_[A12C]],Kd,520 nM
UCUCUUCCUAUAUUAUUACGUCUCUU (ssRNA) [Id_ii_S1_P5E.3_K5.2_C5.2_[T-1C]_H5.2_A5.1_F5.1_T5.2_[T11C]_[A12G]],Kd,746 nM
UCUCUUUGUAUUCUAUCUCUU (ssRNA) [Ib_S1_P4E.1_K4.1_C4.1_H4.1_A4.1_[A6T]_[T7C]_F4.1_T4.1],Kd,2.85 nM
UCUCUUCGUAUAUUAUUAUUUCUCUU (ssRNA) [Id_ii_S1_P5E.3_K5.2_C5.2_[T-1G]_H5.2_A5.1_F5.1_T5.2_[A12T]],Kd,26.6 nM
UCUCUUACUAUAUUAUUACAUCUCUU (ssRNA) [Id_ii_S1_P5E.3_K5.2_C5.2_[C-2A]_[T-1C]_H5.2_A5.1_F5.1_T5.2_[T11C]],Kd,424 nM
UCUCUUCUUAUAUUAUUACGUCUCUU (ssRNA) [Id_ii_S1_P5E.3_K5.2_C5.2_H5.2_A5.1_F5.1_T5.2_[T11C]_[A12G]],Kd,447 nM
UCUCUUUGUAUUGUAUCUCUU (ssRNA) [Ib_S1_P4E.1_K4.1_C4.1_H4.1_A4.1_[A6T]_[T7G]_F4.1_T4.1],Kd,7.79 nM
UCUCUUUUUAUAUUAUUAUCUCUCUU (ssRNA) [Id_ii_S1_P5E.3_K5.2_C5.2_[C-2T]_H5.2_A5.1_F5.1_T5.2_[A12C]],Kd,550 nM
UCUCUUUGUAUUACCAUCUCUU (ssRNA) [Ib_S1_P5E.1_K5.1_C5.1_H5.1_A5.1_F5.1_[T8C]_[T9C]_T5.1],Kd,287 nM
UCUCUUAAUAUAUUAUUACUUCUCUU (ssRNA) [Id_ii_S1_P5E.3_K5.2_C5.2_[C-2A]_[T-1A]_H5.2_A5.1_F5.1_T5.2_[T11C]_[A12T]],Kd,552 nM
UCUCUUAAUAUAUUAUUACCUCUCUU (ssRNA) [Id_ii_S1_P5E.3_K5.2_C5.2_[C-2A]_[T-1A]_H5.2_A5.1_F5.1_T5.2_[T11C]_[A12C]],Kd,668 nM
UCUCUUCUUAUAUUAUUAACUCUCUU (ssRNA) [Id_ii_S1_P5E.3_K5.2_C5.2_H5.2_A5.1_F5.1_T5.2_[T11A]_[A12C]],Kd,476 nM
UCUCUUCCUAUAUUAUUAAGUCUCUU (ssRNA) [Id_ii_S1_P5E.3_K5.2_C5.2_[T-1C]_H5.2_A5.1_F5.1_T5.2_[T11A]_[A12G]],Kd,971 nM
UCUCUUCUUAUAUUAUUACAUCUCUU (ssRNA) [Id_ii_S1_P5E.3_K5.2_C5.2_H5.2_A5.1_F5.1_T5.2_[T11C]],Kd,471 nM
UCUCUUCAUAUAUUAUUACCUCUCUU (ssRNA) [Id_ii_S1_P5E.3_K5.2_C5.2_[T-1A]_H5.2_A5.1_F5.1_T5.2_[T11C]_[A12C]],Kd,278 nM
UCUCUUCAUAUAUUAUUAGUUCUCUU (ssRNA) [Id_ii_S1_P5E.3_K5.2_C5.2_[T-1A]_H5.2_A5.1_F5.1_T5.2_[T11G]_[A12T]],Kd,141 nM
UCUCUUAUUAUAUUAUUACCUCUCUU (ssRNA) [Id_ii_S1_P5E.3_K5.2_C5.2_[C-2A]_H5.2_A5.1_F5.1_T5.2_[T11C]_[A12C]],Kd,203 nM
UCUCUUCCUAUAUUAUUAAUUCUCUU (ssRNA) [Id_ii_S1_P5E.3_K5.2_C5.2_[T-1C]_H5.2_A5.1_F5.1_T5.2_[T11A]_[A12T]],Kd,779 nM
UCUCUUAUUAUAUUAUUAUCUCUCUU (ssRNA) [Id_ii_S1_P5E.3_K5.2_C5.2_[C-2A]_H5.2_A5.1_F5.1_T5.2_[A12C]],Kd,63.5 nM
UCUCUUAAUAUAUUAUUACAUCUCUU (ssRNA) [Id_ii_S1_P5E.3_K5.2_C5.2_[C-2A]_[T-1A]_H5.2_A5.1_F5.1_T5.2_[T11C]],Kd,601 nM
UCUCUUAUUAUAUUAUUACGUCUCUU (ssRNA) [Id_ii_S1_P5E.3_K5.2_C5.2_[C-2A]_H5.2_A5.1_F5.1_T5.2_[T11C]_[A12G]],Kd,126 nM
UCUCUUACUAUAUUAUUACUUCUCUU (ssRNA) [Id_ii_S1_P5E.3_K5.2_C5.2_[C-2A]_[T-1C]_H5.2_A5.1_F5.1_T5.2_[T11C]_[A12T]],Kd,486 nM
UCUCUUCCUAUAUUAUUAAAUCUCUU (ssRNA) [Id_ii_S1_P5E.3_K5.2_C5.2_[T-1C]_H5.2_A5.1_F5.1_T5.2_[T11A]],Kd,683 nM
UCUCUUCUUAUAUUAUUAGCUCUCUU (ssRNA) [Id_ii_S1_P5E.3_K5.2_C5.2_H5.2_A5.1_F5.1_T5.2_[T11G]_[A12C]],Kd,122 nM
UCUCUUCGUAUAUUAUUAACUCUCUU (ssRNA) [Id_ii_S1_P5E.3_K5.2_C5.2_[T-1G]_H5.2_A5.1_F5.1_T5.2_[T11A]_[A12C]],Kd,27.7 nM
UCUCUUUGUAUUAUAUCUCUU (ssRNA) [Ib_S1_P4E.1_K4.1_C4.1_H4.1_A4.1_[A6T]_[T7A]_F4.1_T4.1],Kd,2.13 nM
UCUCUUACUAUAUUAUUAAAUCUCUU (ssRNA) [Id_ii_S1_P5E.3_K5.2_C5.2_[C-2A]_[T-1C]_H5.2_A5.1_F5.1_T5.2_[T11A]],Kd,626 nM
UCUCUUUUUAUAUUAUUAACUCUCUU (ssRNA) [Id_ii_S1_P5E.3_K5.2_C5.2_[C-2T]_H5.2_A5.1_F5.1_T5.2_[T11A]_[A12C]],Kd,524 nM
UCUCUUCUUAUAUUAUUACCUCUCUU (ssRNA) [Id_ii_S1_P5E.3_K5.2_C5.2_H5.2_A5.1_F5.1_T5.2_[T11C]_[A12C]],Kd,571 nM
